Data on one molecule can be found in US20240262878A1, “PHOTOACTIVATABLE GASDERMIN PROTEINS” (THE BOARD OF TRUSTEES OF THE UNIVERSITY OF ILLINOIS, priority 2021, published 2024).

One assay deals with living endothelial cells. The assay can be described thus: Whole-cell patching after injection of activated recombinant GSDMD. Format: cell-based. The settings on record: injection of activated protein, n=15. The source says:
To further address whether the calcium dynamics primarily reflected that of GSDMD pores, whole-cell patching was directly recorded in living endothelial cells, which also undergo pyroptosis. […] Additionally, as befitting a large pore, the GSDMD pore opening/closing dynamics were not restricted to calcium observations. Calcium flares were visualized, which occurred in coincidence with the transient flux of a large fluorogenic molecule, within the same spatiotemporal context in living cells.

For another assay, the target named is T1, GSDMD pores (Homo sapiens, UniProt P57764).
T1 construct: His-SUMO (N, cleaved yes); made in house; host or cells: E. coli BL21
T1 sequence (P57764 1-275 limits assumed): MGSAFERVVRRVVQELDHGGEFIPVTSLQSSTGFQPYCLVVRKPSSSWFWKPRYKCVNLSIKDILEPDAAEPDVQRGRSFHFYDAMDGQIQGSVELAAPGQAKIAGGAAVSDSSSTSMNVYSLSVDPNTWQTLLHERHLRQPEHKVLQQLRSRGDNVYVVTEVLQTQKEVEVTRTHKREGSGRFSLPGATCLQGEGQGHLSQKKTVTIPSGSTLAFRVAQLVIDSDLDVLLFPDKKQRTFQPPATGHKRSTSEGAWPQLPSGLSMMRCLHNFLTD
The assay can be described thus: Free-standing planar lipid bilayer electrophysiology of reconstituted GSDMD pores. It is filed as biochemical. Here is the method: Protein Purification. Plasmid encoding the full length human GSDMD with a N-terminal His-SUMO tag was transformed into E. coli BL21 strain. The cultures were grown at 37° C. until OD600 0.8, and protein expression was induced with 0.2 mM isopropyl β-D-1-thiogalactopyranoside (IPTG) overnight at 20° C. The cells were harvested by centrifugation and the pellet was resuspended in 20 mM Tris buffer, pH 7.5, 50 mM NaCl, 5 mM imidazole, 20 mM MgCl2, 10 mM KCl, 0.5 mM TCEP, 0.1 mM protease inhibitor, and DNase I. After resuspension, cells were disrupted by high-pressure and centrifuged at 30,000 g at 4° C. for 1 hour. The supernatant was incubated for 2 hours at room temperature with pre-equilibrated Ni-NTA affinity resin (Thermo Scientific) and then passed through a column for gravity flow purification. The column was washed with 20 column volumes of resuspension buffer, and the fusion protein was eluted with three column volumes of the same buffer with 250 mM imidazole. SUMO-tag cleavage was achieved by addition of ULP1 protease to the solution and subsequent dialysis overnight at 4° C. against 20 mM Tris buffer, pH 7.5, 50 mM NaCl, 0.5 mM TCEP. GSDMD was eluted from a second round of purification through pre-equilibrated Ni-NTA affinity resin. The protein was further purified by HI-TRAP® Q ion-exchange resin and a SUPERDEX® 75 gel filtration column (GE Healthcare) pre-equilibrated with 20 mM Tris buffer, pH 7.5, 50 mM NaCl, 0.5 mM TCEP. The purified protein was concentrated to 20 mg/ml and frozen at −80° C.
Free-Standing Lipid Bilayer Formation and Electrophysiology. For the lipid bilayer, a bilayer chamber with a polystyrene cuvette was used. In addition, the folding method, which is based on Langmuir-Blodgett film formation (Kroemer et al. (2009) Cell Death Differ. 16:3-11; Weavers et al. (2016) Cell 165:1658-1671) was employed. Monolayers that were spread in the air-water interface were faced at the chamber hole (Bergsbaken & Fink (2009) Nat. Rev. Microbiol. 7:99-109; Mulvihill et al. (2018) EMBO J. 37 (14): e98321). In brief, a shallow trough made of polystyrene was filled with recording solution, and the surface was separated into two parts by one of the cuvette walls. Bilayers were formed by monolayers of 1:3 1-palmitoyl-2-oleoylphosphatidylethanolamine (POPE)/1-palmitoyl-2-oleoylphosphatidylcholine (POPC) (Avanti-lipids) in pentane; where appropriate, phosphoinositides of the indicated headgroup were introduced with di-oleoyl (18:1) fatty acid chains at 10% relative concentration. A small amount of phospholipid, dispersed in pentane solution, was dropped on one of the water surfaces and as pentane evaporated, the lipid molecules remained at the air-water interface. The movements of the lipid molecules became less vigorous, and eventually the lipid molecules packed together to form a monolayer. For the formation of the planar lipid bilayer by the folding method, a monolayer was formed at the air-water interface in each compartment. Upon raising the recording solution level by adding more solution, the monolayer ran up on the cuvette surface and passed through the hole, where the two monolayers from both sides encountered each other and formed a bilayer. The membrane formed by this method has been referred to as a “solvent-free” membrane. The advantage of this method over other methods, like the painting method, is the capacity to form an asymmetrical membrane in which the lipid composition of either leaflet is arbitrarily defined (Kayagaki et al. (2015) Nature 526: 666-671). Once formed, the membrane retains this asymmetry for a long time because the flip-flop or exchange of the lipid molecules between both leaflets of the membrane is very slow.
For incorporation of the GSDMD into the lipid bilayer, 2 μM of the purified GSDMD protein was added to the cis side chamber along with 2 μM of caspase 1. The specific membrane capacitance of the membrane formed by the folding method was 0.6-0.8 μF/cm^2. […]

B1: GSDMD: purified recombinant full length human GSDMD, activated by caspase-1 (protein, UniProt P57764 1-484, looked up)
chain: MGSAFERVVRRVVQELDHGGEFIPVTSLQSSTGFQPYCLVVRKPSSSWFWKPRYKCVNLSIKDILEPDAAEPDVQRGRSFHFYDAMDGQIQGSVELAAPGQAKIAGGAAVSDSSSTSMNVYSLSVDPNTWQTLLHERHLRQPEHKVLQQLRSRGDNVYVVTEVLQTQKEVEVTRTHKREGSGRFSLPGATCLQGEGQGHLSQKKTVTIPSGSTLAFRVAQLVIDSDLDVLLFPDKKQRTFQPPATGHKRSTSEGAWPQLPSGLSMMRCLHNFLTDGVPAEGAFTEDFQGLRAEVETISKELELLDRELCQLLLEGLEGVLRDQLALRALEEALEQGQSLGPVEPLDGPAGAVLECLVLSSGMLVPELAIPVVYLLGALTMLSETQHKLLAEALESQTLLGPLELVGSLLEQSAPWQERSTMSLPPGLLGNSWGEGAPAWVLLDECGLELGEDTPHVCWEPQAQGRMCALYASLALLSGLSQEPH
modifications: full-length activated by caspase-1
For the molecule B1, the “single pore currents, whole-cell patching” value in the assay with living endothelial cells is “showed single pore currents”. In the assay with GSDMD pores (POPE/POPC baseline bilayer), the “mean current of single pores” value was determined as 32 pA and the open probability is ~0.2. Moreover, in the assay with GSDMD pores (POPE/POPC baseline bilayer, GSDMD + caspase-1, n=20 bilayers), the “time to micro-currents (protein-membrane interaction) after protein introduction” value came to 27.2 ± 2.7 min. Further, the “ion selectivity of pores” value with GSDMD pores (ramp protocol, dual rectification) is “not inherently ion-selective”.
